The values below come from patent US8993725B2, “Notch-based fusion proteins and uses thereof” (The Trustees of Columbia University in the City of New York, priority 2004, dated 2015).

“Also recorded” adds a separate entry of the source.

Experiment [1] has as its system Notch1 signaling activated by Notch ligands (Jagged1, Delta-like 1, Delta-like 4). As to the kind of experiment: Co-culture assay of ligand-induced Notch signaling (CSL-luciferase reporter). It is filed as cell-based. The following applies: for Inhibition of ligand-induced Notch1 signaling (CSL reporter activity): fusion protein expression vector co-transfected into Notch1-expressing HeLa, co-culture with ligand-expressing 293 (Bosc) cells. Here is the method: Notch and Notch responsive transcriptional reporters are expressed in a “Notch-responsive” cell, HeLa. Notch ligands, Jagged-1, Delta-like 1, or Delta-like 4 are expressed in a “ligand-presenting” cell, 293. Expression is mediated by transfection of individual cell populations, cells are co-cultured, and then assayed for Notch-dependent reporter activity.
To determine ligand-induced Notch signaling, co-culture assays were performed using HeLa and 293-derived Bosc cells. Transient transfections were performed by calcium phosphate precipitation. Hela cells plated 1-day prior in 10-cm plates at 1.5×10^6 were transfected with 333 ng of pBOS Notch1, 333 ng pGA981-6, and 83 ng pLNC lacZ with either 666 ng pCMV-Fc or pHyTC-N1ECDFc (333 ng for ×1, 666 ng for ×2). Bosc cells plated 1-day prior in 10-cm plates at 4×10^6 were transfected with either 680 ng pHyTc-Jagged1, pHyTc-Dll1, pHyTc-Dll4, or pHyTc-x (empty vector). One day after transfection, the cells were co-cultured in triplicate (HeLa:Bosc, 1:2) on 12-well plates for 24 hours. Cells were harvested and luciferase activity was determined 2-days post-transfection using the Enhanced Luciferase assay kit (BD PharMingen), and β-galactosidase activity was determined using the Galacto-Light Plus kit (PE Biosystems). All assays were performed in a Berthold dual-injection luminometer.
An in vitro co-culture system (FIG. 3) with ligands expressed on one cell and Notch receptor activation scored in another cell was used to measure transcriptional activation of the Notch pathway. […] The N1ECD/Fc expression vector was co-transfected at different ratios with full-length Notch1 and the CSL-luciferase reporter in HeLa cells, followed by co-culture with ligand expressing 293 cells.
On the technique in general: A reporter such as luciferase makes a cellular process visible.

The next experiment relates to Ad-VEGF-infected HUVEC. As to the kind of experiment: VEGF-induced budding (sprouting assay) of Ad-VEGF-HUVEC on collagen gel. The class given is cell-based, Human. The following applies: for Inhibition of VEGF-induced HUVEC budding: co-infection with Ad-VEGF; for Inhibition of VEGF-induced HUVEC budding / Effect of fusion protein adenovirus alone on HUVEC morphology / bud formation: collagen gel; for Effect of fusion protein adenovirus alone on HUVEC morphology / bud formation: without Ad-VEGF. Here is the method: For making collagen gels, an ice-cold solution of porcine type I collagen (Nitta gelatin, Tokyo, Japan) was mixed with 10×RPMI1640 medium and neutralization buffer at the ratio of 8:1:1. 400 μl aliquots of collagen gel were then added to 24-well plates and allowed to gel for at least 1 hour at 37° C. Following adenoviral infection (above), HUVEC was harvested and plated at 1.3×10^5 cells per well onto the top of the collagen gel in 24-well plates in 0.8 ml of EGM2 medium. HUVEC became nearly confluent 48 hours after plating. After seeding, medium was changed every 2 days for 1 week. Sprouting was observed and photographs taken after 8 days with an Olympus digital camera mounted to a microscope. For quantification of the number of sprouts, 5 fields per each well were randomly selected and sprouting was counted under microscopy in a blind manner by two investigators.
HUVEC (Human Umbilical Vein Endothelial cells) growth are dependent on VEGF (FIGS. 26A and 26B) and differentiation-related biological responses, such as sprouting, and can be evaluated at an early stage (7). At first, we examined whether adenovirally transduced VEGF induced both Notch and Notch ligand expression in HUVEC cultured with complete medium containing bFGF (FIG. 22A), as reported (5). […] Transduced-VEGF also activated Notch signaling in a dose-dependent manner by measuring CSL-luciferase reporter activity (FIG. 22B), which was transactivated with Notch signaling (8). Notch signaling was activated at a higher dosage of Ad-VEGF, compared to proliferation (FIG. 26A). […] Since Notch mutants lacking both transmembrane and cytoplasmic domains functioned as dominant negative inhibitors against Notch signaling (9), we made a Notch-based fusion protein or decoy (N1ECDFc) to inhibit Notch signaling (FIG. 22D). […] Then, we examined whether N1ECDFc inhibited activation of Notch signaling by transduced VEGF in HUVEC (FIG. 22G). […] Gerhardt et al. reported that VEGF controlled angiogenesis in the early postnatal retina by guiding filopodia extension at the tips of the vascular sprouts (10). During angiogenic sprouting, the formation of a specialized endothelial cell making filopodia projections among quiescent endothelial cells, might be one of the early events. Here we mean formation of a single endothelial cell making filopodia protrusions as budding. Budding of the primary endothelial cells is induced by cultivating them 3-dimensionally on either fibrin or collagen gel (11). In the case where Ad-VEGF-HUVEC were cultured on collagen gel with complete medium, transduced-HUVEC made filopodia extensions into the collagen gel for 5 days (FIG. 22H) and the number of buds was increased in a dose-dependent manner (FIG. 27A). […] Since both VEGF and Notch signaling induce HUVEC budding, we examined whether N1ECDFc inhibited VEGF-induced HUVEC budding (FIG. 22H-I).

A further experiment has as its system HUVEC. As to the kind of experiment: HUVEC proliferation (CCK-8 kit). It is filed as cell-based, Human. The following applies: complete medium, 4 days. Here is the method: These Figures show proliferation of Ad-VEGF165-transduced HUVEC. HUVEC were transduced with Ad-VEGF165 at the indicated dosages. Ad-LacZ was also co-infected to make the same total amount of adenovirus at a MOI of 40 pfu/cell. HUVEC were suspended in SFM supplemented with 1% FBS and then plated at 1×10^4 cells/well in 24-well multi-well plates with 0.4 ml of medium. After 4 days, cell numbers were determined using the CCK-8 kit and the results are indicated as the ratio of cell numbers determined to the number of control cells, which were transduced with Ad-GFP at a MOI of 40 pfu/cell. […] Ad-VEGF-transduced HUVEC were treated with SU5416 at the indicated dosages.
These Figures show the effect of alteration of Notch signaling on cell proliferation. The cells were transduced with the indicated adenoviruses. Ad-GFP was also co-infected to make the same total amount of adenovirus at a MOI of 60 pfu/cell. After 4 days, cell numbers were determined using the CCK-8 kit and results are indicated as the ratio of cell numbers determined to the number of control cells, which were transduced with AD-GFP at MOI of 60 pfu/cell. […] Transduced HUVEC were suspended in complete medium and then plated at 1×10^4 cells/well in 24-well multiwell plates with 0.4 ml of indicated medium (□: Ad-N1IC; ▪: Ad-N1ECDFc). […]
(Tetrazolium dyes change colour on reduction, which living cells bring about.)

B1: N1ECDFc: Notch-based fusion protein or decoy: extracellular domain of Notch1 containing the EGF-repeats fused to the Fc portion of an antibody (protein)
chain: ARGLRCSQPSGTCLNGGRCEVANGTEACVCSGAFVGQRCQDPSPCLSTPCKNAGTCYVVDHGGIVDYACSCPLGFSGPLCLTPLANACLANPCRNGGTCDLLTLTEYKCRCPPGWSGKSCQQADPCASNPCANGGQCLPFESSYICGCPPGFHGPTCRQDVNECSQNPGLCRHGGTCHNEIGSYRCACRATHTGPHCELPYVPCSPSPCQNGGTCRPTGDTTHECACLPGFAGQNCEENVDDCPGNNCKNGGACVDGVNTYNCRCPPEWTGQYCTEDVDECQLMPNACQNAGTCHNSHGGYNCVCVNGWTGEDCSDNIDDCASAACFQGATCHDRVASFYCECPHGRTGLLCHLNDACISNPCNEGSNCDTNPVNGKAICTCPRGYTGPACSQDVDECALGANPCEHAGKCLNTLGSFECQCLQGYTGPRCEIDVNECISNPCQNDATCLDQIGEFQCICMPGYEGVYCEINTDECASSPCLHNGRCVDKINEFLCQCPKGFSGHLCQYDVDECASTPCKNGAKCLDGPNTYTCVCTEGYTGTHCEVDIDECDPDPCHIGLCKDGVATFTCLCQPGYTGHHCETNINECHSQPCRHGGTCQDRDNYYLCLCLKGTTGPNCEINLDDCASNPCDSGTCLDKIDGYECACEPGYTGSMCNVNIDECAGSPCHNGGTCEDGIAGFTCRCPEGYHDPTCLSEVNECNSNPCIHGACRDGLNGYKCDCAPGWSGTNCDINNNECESNPCVNGGTCKDMTSGYVCTCREGFSGPNCQTNINECASNPCLNQGTCIDDVAGYKCNCPLPYTGATCEVVLAPCATSPCKNSGVCKESEDYESFSCVCPTGWQGQTCEIDINECVKSPCRHGASCQNTNGSYRCLCQAGYTGRNCESDIDDCRPNPCHNGGSCTDGVNAAFCDCLPGFQGAFCEEDINECATNPCQNGANCTDCVDSYTCTCPTGFNGIHCENNTPDCTESSCFNGGTCVDGINSFTCLCPPGFTGSYCQYDVNECDSRPCLHGGTCQDSYGTYKCTCPQGYTGLNCQNLVRWCDSAPCKNGGKCWQTNTQYHCECRSGWTGFNCDVLSVSCEVAAQKRGIDVTLLCQHGGLCVDEEDKHYCHCQAGYTGSYCEDEVDECSPNPCQNGATCTDYLGGFSCKCVAGYHGSNCSEEINECLSQPCQNGGTCIDLTNTYKCSCPRGTQGVHCEINVDDCHPPLDPASRSPKCFNNGTCVDQVGGYTCTCPPGFVGERCEGDVNECLSNPCDPRGTQNCVQRVNDFHCECRAGHTGRRCESVINGCRGKPCRNGGVCAVASNTARGFICRCPARFEGATCENDARTCGSLRCLNGGTCISGPRSPTCLCLGSFTGPECQFPASSPCVGSNPCYNQGTCEPTSESPFYRCLCPAKFNGLLCHILDYSFTDLGPG
modifications: left off: a dimerising Fc or GST
notes: Notch-based fusion protein or decoy: extracellular domain of Notch1 containing the EGF-repeats fused to the Fc portion of an antibody
B1: in experiment [1] (2:1 versus 1:1 ratio of N1ECD/Fc to Notch1 vector), the “Concentration-dependency of inhibition of Notch1 signaling” value is on record as “a 2:1 ratio of N1ECD/Fc to Notch1 was more effective in inhibiting signaling than a 1:1 ratio”. Also, the “Block of signaling by individual Notch ligands” value in experiment [1] (Jagged1, Delta-like 1 or Delta-like 4 expressing cells) is “could block signaling mediated by Jagged1, Delta-like 1 or Delta-like 4”. Also, the “Inhibition of ligand-induced Notch1 signaling (CSL reporter activity)” value in experiment [1] is on record as “inhibition of Notch signaling”; in experiment [1] (listed as N1ECD/Fc), “activation of Notch1 signaling by Notch ligands was reduced”; in experiment [1] (listed as Notch1ECD/Fc) it was “functions to block ligand-dependent Notch signaling”; in experiment [1] (listed as Notch-based fusion protein), “these inductions were inhibited”. Besides, the “Inhibition of VEGF-induced HUVEC budding” value is on record as “clearly inhibited” in the experiment with Ad-VEGF-infected HUVEC, “clearly inhibited; also recorded: inhibition of budding” with Ad-VEGF-infected HUVEC (listed as Ad-N1ECDFc) and “clearly inhibited; also recorded: could inhibit VEGF-induced budding” in the experiment on Ad-VEGF-infected HUVEC (listed as Notch fusion protein). The “Cell number in VEGF-induced HUVEC budding assay” value in the experiment with Ad-VEGF-infected HUVEC (co-transduction with Ad-VEGF) was “without affecting cell number”. Also, the “Effect of fusion protein adenovirus alone on HUVEC morphology / bud formation” value in the experiment on Ad-VEGF-infected HUVEC (listed as Ad-N1ECDFc) was “Neither Ad-LacZ or Ad-N1ECDFc-transduced HUVEC formed buds”; in the experiment with Ad-VEGF-infected HUVEC (listed as Ad-Notch fusion protein) it was “had less effect on morphology”; in the experiment with Ad-VEGF-infected HUVEC (listed as Ad-Notch-based fusion protein), “had less effect on morphology”. In addition, the “Proliferation of transduced HUVEC” value with HUVEC is recorded as “did not clearly alter proliferation of HUVEC”.
